{
  "source": "patent US9359599",
  "key": {"[1]": {"test_system": "CCR5A R18 TALEN canonical ELD/KKR (Artificial (Xanthomonas TALE-FokI))", "assay": "cell_activity"}, "[2]": {"test_system": "CCR5A R18 TALEN Q7 ELD/KKR (Artificial (Xanthomonas TALE-FokI))", "assay": "cell_activity"}, "[3]": {"test_system": "CCR5A R18 TALEN Q3 ELD/KKR (Artificial (Xanthomonas TALE-FokI))", "assay": "cell_activity"}, "[4]": {"test_system": "CCR5A R18 TALEN 28-aa EL/KK (Artificial (Xanthomonas TALE-FokI))", "assay": "cleavage_in_vitro", "details": "as pair, 16 nM"}, "[5]": {"test_system": "CCR5A R18 TALEN canonical EL/KK (Artificial (Xanthomonas TALE-FokI))", "assay": "cleavage_in_vitro", "details": "as L18+R18 pair, 16 nM"}, "[6]": {"test_system": "CCR5A R18 TALEN N2 EL/KK (Artificial (Xanthomonas TALE-FokI))", "assay": "cleavage_in_vitro", "details": "as pair, 16 nM"}, "[7]": {"test_system": "CCR5A R18 TALEN N3 EL/KK (Artificial (Xanthomonas TALE-FokI))", "assay": "cleavage_in_vitro", "details": "as pair, 16 nM"}, "[8]": {"test_system": "CCR5A R18 TALEN N1 EL/KK (Artificial (Xanthomonas TALE-FokI))", "assay": "cleavage_in_vitro", "details": "as pair, 16 nM"}, "[9]": {"test_system": "CCR5A R18 TALEN Q7 EL/KK (Artificial (Xanthomonas TALE-FokI))", "assay": "cleavage_in_vitro", "details": "as pair, 16 nM"}, "[10]": {"test_system": "CCR5A R18 TALEN Q3 EL/KK (Artificial (Xanthomonas TALE-FokI))", "assay": "cleavage_in_vitro", "details": "as pair, 16 nM"}, "[11]": {"test_system": "CCR5B R10 TALEN (Artificial (Xanthomonas TALE-FokI))", "assay": "cleavage_in_vitro", "details": "as L10+R10 pair"}, "[12]": {"test_system": "CCR5B R13 TALEN (Artificial (Xanthomonas TALE-FokI))", "assay": "cleavage_in_vitro", "details": "as L13+R13 pair"}, "[13]": {"test_system": "CCR5B R16 TALEN (Artificial (Xanthomonas TALE-FokI))", "assay": "cleavage_in_vitro", "details": "as L16+R16 pair"}, "[14]": {"test_system": "CCR5B L13 TALEN (Artificial (Xanthomonas TALE-FokI))", "assay": "cleavage_in_vitro", "details": "as L13+R13 pair"}, "[15]": {"test_system": "CCR5B L16 TALEN (Artificial (Xanthomonas TALE-FokI))", "assay": "cleavage_in_vitro", "details": "as L16+R16 pair"}, "[16]": {"test_system": "ATM L18 TALEN canonical EL/KK (Artificial (Xanthomonas TALE-FokI))", "assay": "cleavage_in_vitro", "details": "as L18+R18 pair, 12 nM"}, "[17]": {"test_system": "ATM L18 TALEN N2 EL/KK (Artificial (Xanthomonas TALE-FokI))", "assay": "cleavage_in_vitro", "details": "as pair, 12 nM"}, "[18]": {"test_system": "ATM L18 TALEN Q3 EL/KK (Artificial (Xanthomonas TALE-FokI))", "assay": "cleavage_in_vitro", "details": "as pair, 12 nM"}, "[19]": {"test_system": "ATM L18 TALEN N1 EL/KK (Artificial (Xanthomonas TALE-FokI))", "assay": "cleavage_in_vitro", "details": "as pair, 12 nM"}, "[20]": {"test_system": "ATM L18 TALEN Q7 EL/KK (Artificial (Xanthomonas TALE-FokI))", "assay": "cleavage_in_vitro", "details": "as pair, 12 nM"}, "[21]": {"test_system": "ATM L18 TALEN N3 EL/KK (Artificial (Xanthomonas TALE-FokI))", "assay": "cleavage_in_vitro", "details": "as pair, 12 nM"}, "[22]": {"test_system": "CCR5B L10 TALEN (Artificial (Xanthomonas TALE-FokI))", "assay": "cleavage_in_vitro", "details": "as L10+R10 pair"}, "[23]": {"test_system": "ATM R18 TALEN canonical EL/KK (Artificial (Xanthomonas TALE-FokI))", "assay": "cleavage_in_vitro", "details": "as pair, 12 nM"}, "[24]": {"test_system": "ATM R18 TALEN N2 EL/KK (Artificial (Xanthomonas TALE-FokI))", "assay": "cleavage_in_vitro", "details": "as pair, 12 nM"}, "[25]": {"test_system": "ATM R18 TALEN Q7 EL/KK (Artificial (Xanthomonas TALE-FokI))", "assay": "cleavage_in_vitro", "details": "as pair, 12 nM"}, "[26]": {"test_system": "ATM R18 TALEN N3 EL/KK (Artificial (Xanthomonas TALE-FokI))", "assay": "cleavage_in_vitro", "details": "as pair, 12 nM"}, "[27]": {"test_system": "ATM R18 TALEN N1 EL/KK (Artificial (Xanthomonas TALE-FokI))", "assay": "cleavage_in_vitro", "details": "as pair, 12 nM"}, "[28]": {"test_system": "ATM R18 TALEN Q3 EL/KK (Artificial (Xanthomonas TALE-FokI))", "assay": "cleavage_in_vitro", "details": "as pair, 12 nM"}},
  "data": [
    {"sequence": "AGCATCAATCCTGGAAGA (double strand) [OffC-16 right half-site]", "values": [
      {"measurement": "activity", "setting": "[1]; pair, off-target, 28 bp spacer", "value": 0.031, "unit": "% modified"}
    ]},
    {"sequence": "AGGAGCAACTCTGGGAGA (double strand) [OffC-5 right half-site]", "values": [
      {"measurement": "activity", "setting": "[2]; pair, off-target, no indels detected", "value": "< 0.006", "unit": "% modified"},
      {"measurement": "activity", "setting": "[3]; pair, off-target", "value": 0.085, "unit": "% modified"},
      {"measurement": "activity", "setting": "[1]; pair, off-target, 14 bp spacer", "value": 2.21, "unit": "% modified"}
    ]},
    {"sequence": "AGTATCAATTCTGGAAGA (double strand) [CCR5A right half-site]", "values": [
      {"measurement": "activity", "setting": "[2]; pair in U2OS-EGFP cells", "value": 5.57, "unit": "% modified"},
      {"measurement": "activity", "setting": "[3]; pair in U2OS-EGFP cells", "value": 24.3, "unit": "% modified"},
      {"measurement": "activity", "setting": "[1]; pair in U2OS-EGFP cells", "value": 27.6, "unit": "% modified"},
      {"measurement": "activity (fold enrichment)", "setting": "[4]", "value": 70.4},
      {"measurement": "activity (fold enrichment)", "setting": "[5]", "value": 12.2},
      {"measurement": "activity (fold enrichment)", "setting": "[6]", "value": 41.7},
      {"measurement": "activity (fold enrichment)", "setting": "[7]", "value": 174},
      {"measurement": "activity (fold enrichment)", "setting": "[8]", "value": 19},
      {"measurement": "activity (fold enrichment)", "setting": "[9]", "value": 62.3},
      {"measurement": "activity (fold enrichment)", "setting": "[10]", "value": 18.6}
    ]},
    {"sequence": "CATACAGTCA (double strand) [CCR5B R10 half-site]", "values": [
      {"measurement": "activity (fold enrichment)", "setting": "[11]", "value": 44}
    ]},
    {"sequence": "CATACAGTCAGTA (double strand) [CCR5B R13 half-site]", "values": [
      {"measurement": "activity (fold enrichment)", "setting": "[12]", "value": 113}
    ]},
    {"sequence": "CATACAGTCAGTATCA (double strand) [CCR5B R16 half-site]", "values": [
      {"measurement": "activity (fold enrichment)", "setting": "[13]", "value": 59.4}
    ]},
    {"sequence": "CTCATCAATTCTGGGTGA (double strand) [OffC-13 right half-site]", "values": [
      {"measurement": "activity", "setting": "[1]; pair, off-target, no indels", "value": "< 0.006", "unit": "% modified"}
    ]},
    {"sequence": "GATATCCTTTCTGGAAGA (double strand) [OffC-28 right half-site]", "values": [
      {"measurement": "activity", "setting": "[1]; pair, off-target, 19 bp spacer", "value": 0.163, "unit": "% modified"}
    ]},
    {"sequence": "GGTATCTATCCTGGAATA (double strand) [OffC-15 right half-site]", "values": [
      {"measurement": "activity", "setting": "[1]; pair, off-target, 26 bp spacer", "value": 0.23, "unit": "% modified"}
    ]},
    {"sequence": "TCATTACACCTGC (double strand) [CCR5B L13 half-site]", "values": [
      {"measurement": "activity (fold enrichment)", "setting": "[14]", "value": 113}
    ]},
    {"sequence": "TCTTCATTACACCTGC (double strand) [CCR5B L16 half-site]", "values": [
      {"measurement": "activity (fold enrichment)", "setting": "[15]", "value": 59.4}
    ]},
    {"sequence": "TGAATTGGGATGCTGTTT (double strand) [ATM left half-site]", "values": [
      {"measurement": "activity (fold enrichment)", "setting": "[16]", "value": 20.5},
      {"measurement": "activity (fold enrichment)", "setting": "[17]", "value": 119},
      {"measurement": "activity (fold enrichment)", "setting": "[18]", "value": 50.4},
      {"measurement": "activity (fold enrichment)", "setting": "[19]", "value": 57.2},
      {"measurement": "activity (fold enrichment)", "setting": "[20]", "value": 513},
      {"measurement": "activity (fold enrichment)", "setting": "[21]", "value": 201}
    ]},
    {"sequence": "TTACACCTGC (double strand) [CCR5B L10 half-site]", "values": [
      {"measurement": "activity (fold enrichment)", "setting": "[22]", "value": 44}
    ]},
    {"sequence": "TTTATTTTACTGTCTTTA (double strand) [ATM right half-site]", "values": [
      {"measurement": "activity (fold enrichment)", "setting": "[23]", "value": 20.5},
      {"measurement": "activity (fold enrichment)", "setting": "[24]", "value": 119},
      {"measurement": "activity (fold enrichment)", "setting": "[25]", "value": 513},
      {"measurement": "activity (fold enrichment)", "setting": "[26]", "value": 201},
      {"measurement": "activity (fold enrichment)", "setting": "[27]", "value": 57.2},
      {"measurement": "activity (fold enrichment)", "setting": "[28]", "value": 50.4}
    ]}
  ]
}
